According to patent US11932880B2, “Enzyme and method for assaying pentosidine using same” (priority 2018, dated 2024):

B1: Amino Acid Oxidase Type VI Derived from Crotalus adamanteus: purchased enzyme manufactured by Merck, SEQ ID NO: 12 (protein, listed as Crotalus adamanteus)
chain: AHDRNPLEECFRETDYEEFLEIAKNGLTATSNPKRVVIVGAGMAGLSAAYVLAGAGHQVTVLEASERVGGRVRTYRKKDWYANLGPMRLPTKHRIVREYIKKFDLKLNEFSQENENAWYFIKNIRKRVREVKNNPGLLEYPVKPSEEGKSAAQLYVESLRKVVEELRSTNCKYILDKYDTYSTKEYLLKEGNLSPGAVDMIGDLLNEDSGYYVSFIESLKHDDIFGYEKRFDEIVGGMDQLPTSMYEAIKEKVQVHFNARVIEIQQNDREATVTYQTSANEMSSVTADYVIVCTTSRAARRIKFEPPLPPKKAHALRSVHYRSGTKIFLTCTKKFWEDDGIHGGKSTTDLPSRFIYYPNHNFTSGVGVIIAYGIGDDANFFQALDFKDCADIVINDLSLIHELPKEDIQTFCHPSMIQRWSLDKYAMGGITTFTPYQFQHFSEALTAPFKRIYFAGEYTAQFHGWIDSTIKSGLTAARDVNRASENPSGIHLSNDNEF
B2: Amino Acid Oxidase Type I Derived from Crotalus atrox: purchased enzyme manufactured by Merck, SEQ ID NO: 13 (protein)
chain: B1 chain
modifications: Crotalus atrox
B3: Lysine Oxidase Derived from Trichoderma viride: purchased enzyme manufactured by Merck, SEQ ID NO: 14 (protein)
chain: MDNVDFAESVRTRWARRLIREKVAKELNILTERLGEVPGIPPPREGRFLGGGYSHDNLPSDPLYSSIKPALLKEAPRAEEELPPRKVCIVGAGVSGLYIAMILDDLKIPNLTYDIFESSSRTGGRLYTHHFTDAKHDYYDIGAMRYPDIPSMKRTFNLFKRTGMPLIKYYLDGENTPQLYNNHFFAKGVVDPYMVSVANGGTVPDDVVDSVGEKLQQAFGYYKEKLAEDFDKGFDELMLVDDMTTREYLKRGGPKGEAPKYDFFAIQWMETQNTGTNLFDQAFSESVIDSFDFDNPTKPEWYCIEGGTSLLVDAMKETLVHKVQNNKRVEAISIDLDAPDDGNMSVKIGGKDYSGYSTVFNTTALGCLDRMDLRGLNLHPTQADAIRCLHYDNSTKVALKFSYPWWIKDCGITCGGAASTDLPLRTCVYPSYNLGDTGEAVLLASYTWSQDATRIGSLVKDAPPQPPKEDELVELILQNLARLHAEHMTYEKIKEAYTGVYHAYCWANDPNVGGAFALFGPGQFSNLYPYLMRPAAGGKFHIVGEASSVHHAWIIGSLESAYTAVYQFLYKYKMWDYLRLLLERWQYGLQELETGKHGTAHLQFILGSLPKEYQVKIV
modifications: Trichoderma viride

Experiment: Enzyme activity measurement with pentosidine as substrate (A555 change, U/mL)
Assay type: biochemical
Settings: 37° C.; for pentosidine oxidase activity: purchased enzymes at 1 mg/mL, potassium phosphate buffer pH 7.5, 100 mM; for specific activity, as a reference value (pentosidine oxidase): 1 mg of powder dissolved in 1 mL deionized water
Experimental: 600 μL of an arbitrary buffer, 400 μL of deionized water solution in which 3.99 U/mL peroxidase, 1.8 mM 4-aminoantipyrine and 2 mM TOOS were dissolved, and 150 μL of deionized water were incubated at an arbitrary temperature for 10 minutes. Then, 50 μL of the enzyme solution having been stored on ice and 400 μL of a solution of 4 mM pentosidine dissolved in a 100 mM potassium phosphate buffer (pH 8.0) having been incubated at an arbitrary temperature for 10 minutes were added thereto, followed by stirring and reacting at an arbitrary temperature for 3 minutes. A change over time of A555 during the reaction was measured using a spectrophotometer (U-3900, manufactured by Hitachi High-Tech Science Corporation). An elapsed time from the start of the measurement of 20 seconds to 60 seconds—A555 change was regarded as an activity value.
Besides, an amount of the enzyme generating 1 μmol of hydrogen peroxide per minute at 37° C. was defined as one unite (U), and the activity was calculated in accordance with the following equation. Activity (U/mL)={(ΔAs−ΔA0)×1.6×df}/(39.2×0.5×0.05) • ΔAs: change of A555 per minute of reaction solution • ΔA0: change of A555 per minute of control experiment • 1.6: volume (mL) of whole reaction solution • df: dilution factor • 39.2: millimolar absorbance coefficient (mM^−1-cm-1) of quinoneimine pigment generated through reaction • 0.5: molar number of quinoneimine pigment generated by 1 mol of hydrogen peroxide • 0.05: volume (mL) of enzyme solution
A 50 mM citric acid-100 mM potassium phosphate buffer (pH 4.0 to 7.5, a final concentration), a potassium phosphate buffer (pH 6.5 to 8.0, a final concentration of 100 mM), and a glycine buffer (pH 8.0 to 11.0, a final concentration of 100 mM) were prepared, and these were used to perform an enzymatic reaction at respective pH at a temperature of 37° C. […] Therefore, it was determined that the optimum pH of PenOX2 is pH 6.5 to 8.0, and that the most suitable optimum pH is pH 7.5.
A potassium phosphate buffer (pH 7.5) having a final concentration of 50 mM was used to perform the activity measurement of PenOX2 at various temperatures. The highest activity was obtained around 50° C., and a temperature range for attaining 80% or more of this highest activity was 37° C. to 50° C. Therefore, it was determined that the range of the optimum temperature of PenOX2 is 37° C. to 50° C.
The above-described activity measurement method was employed to perform activity measurement using a potassium phosphate buffer (final pH in the activity measurement: pH 7.5, final concentration of 50 mM) at 37° C., and an activity value (U/mL) was obtained by using the aforementioned equation.
As described above, both PenOX1 and PenOX2 had the pentosidine oxidase activity. […] Subsequently, the following three enzymes were purchased, and the above-described activity measurement method was employed for confirming their pentosidine oxidase activity using a potassium phosphate buffer (pH 7.5, final concentration of 100 mM) at 37° C. The amino acid sequence homologies with PenOX1 and PenOX2 and the pentosidine oxidase activities of these enzymes were as follows.

Molecule	specific activity (pentosidine oxidase) (enzyme concentration 1 mg/mL (biuret method), pH 7.5, 100 mM) [U/mg]	pentosidine oxidase activity [U/mL]	specific activity, as a reference value (pentosidine oxidase) (pH 7.5, 100 mM) [U/mg]
B1	0.555	0.555	–
B2	–	0.022	0.022
B3	–	0.063	0.063
